According to the domain aggregation screens of Martell et al. (2025):

Experiment: soluble fraction after stress (log2 fold change); higher = more stays soluble; pooled small domains, quantitative proteomics
Settings: stress: pH 4
How it was run: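 Aggregation propensity here comes from the fold change in the soluble amount of each small protein domain after acid stress, measured in pooled custom libraries by high-throughput quantitative proteomics. The acid stress was pH 4. On the log2 scale, higher values mean more of the domain stayed soluble.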

Row | Sequence | soluble fraction (log2)
1 | HMRSSNEAVSQRRDKILDYISATGRTSTEIVAKEFGVSVMTARRDLLYLMEKRLISKSSSGLFKVDNN | 0.408
2 | HMRNEFEAHSDGTRIQLNDRSKATFSVYDVQGRLIHSFQDFSGSSFNIEPKNQLLIITRETAEGVSVKKLV | -0.322
3 | HMINEEELLKIENIKRKYPDSKAALMPVLYFFQEKYGFISDDSIKEISQLLNISEVDIKGVVSFYEMFHEK | -1.04
4 | HMDYKAELDNIIRDHLDMEGPLLPVLHAVMARFSYIPKDAIPIIARKLNLSSAEVSGVISFYHDFKKEK | -0.165
5 | HMPEDQISYTDLIKQINDGNVEKIKMTVGSTTIKVNLKEQEEPKTAIVPSTQAFIELVQEKVQDGNEITLI | -0.39
6 | HMDPKWSHVRRLLDDENPIVRKALTEELIRSPEEGLAFLEQVIREPDHLLAKHAHNLLSELGWV | 0.0459
7 | HMTATSKKAAWDEVNKIFPTDYERSAAESERAGYAIFRSTAEGVNAWISDLGDRLEINLPDGKTVNIWIEE | -0.624
8 | HMVLGSSVAMGQKIGDSDLTWVEVPLSSAFDRFLSEPEWRGSSDLVAARLLEAGVFLTEDDVVE | 0.136
9 | HMLRPMVAILNKNISKGQVISEDYIKFEVRPERQIHGAYHDISEVLGRKTKNNIAAGTILKVRHLDT | 0.375
10 | HMTNADRYIGQEATVTEKISNELSTGAVRIGGLVWTARTVDNSEAEEGERVTVEAIEGAKLLVKRR | -0.0323
11 | HMKLIRIPFILTEGPDSQKITIDVDGDEEFRLGDVFEEDDKLWTVNQILVSGERKAKRSMAGEVMRISALR | -0.696
12 | HMLGARSLNEAVARNLPQILAKYQLIHIAGKNGFNPELQGRGYVQYEYVDTELKDLMALADIVVSR | -0.0512
13 | HMGTAESIRLFLSSGLIKGVGEALAGRIVDTFGTDTFDIIENHPELLAGVKGISHRLAMSIYESFSQHIGV | -0.951
14 | HMGLTLREKMGHVLEMLKGREFLPFVSLFTVEEGRIGVVVTFMSILELVKEGILDLVQTESFGPIHVKAR | 0.0455
15 | HMRYFDDEELNNKFLEFLSMRKKIRKPVRTDRALKALLKKLHELSGGDVGLMKQIIDQSLDKEWLGLFEL | -0.6
16 | HMKKILITGNSGYIGSHLSKMLENDYEVHGLDIRQPQHPVAKFYEQDINRPINIEEEYDAVIHLAALV | -0.104
17 | HMRQVFPNPSSSQIKLASSRIGQAFSILDQQGRVVLSGKVSEEAVIALENLAKGIYVLKIGSWSETILK | 0.00122
18 | HMEKAKVPSVIGMTEANAKRTIRDAGFKVGRVTRVESEAYDKGKVIEQQYEAGSELEKKKPISIVVSKGKK | 0.152
19 | HMEVIDQLFKIALTLFDIDKGENNSISQDLVDKVIEQMKTTAPTFIKRELSEDEVKKLRFEIQNHFNV | -0.411
20 | HMTHSEYVGRHGIAATSLRPAGAATIDGSRVDVVTSGEYIEKGTPIEVMTVNGSTVRVKAVPQIP | 0.08
21 | HMISINVIGEMISGSYGNTPFSRTYEKDIYEQMVKLSDDADQAQTVEEYNKILAEFSLLTTEDLK | -1.73
22 | HMSPRAIYVTTSDLNMRMQPSPNAYKRGVAPRGTELLVVEWGDDWSKVIFEGDTAYAASRYLSYVKDEP | -0.419
23 | HMSFNTNENKNLLWELMNKHNLFKDIDNQHYQEVQKLFEEEIVFISNNNKSLDLVEQNKKFLSSIITKLNK | -1.2
24 | HMSTTSYTQFMEDAKAGKIARVDIKGREITVTPTEGSRYVITSPGDLWMVDDLRKDGVQVYGPP | 0.137
25 | HMSTESAHLGERMLNQALRAMHIEPDQITEAHWQKLIRDYGLKKKSEILTDIGLGKRQNVMVAHQLLAMG | -0.143

Row | Sequence | soluble fraction (log2)
26 | HMTLDEFTDLMNLFKTGHIEQKPVILYGYNYWTSLKSWFEFNNMKFPEMYIDGIINTVDEFKILYNKIF | -0.77
27 | HMQTTKTGTITASSLYVRSGASTSHKVLGTVSKGKTVQIKDTQDGWHKISYNGDHGWVSGKYVSTT | ≥ 0.43
28 | HMKVKEYKLVDWISTFTKNEGYGISQKAAMLLAEFLGDDLSRIANEIEKLKLLVEKGTTINDVHIEENI | -0.721
29 | HMPYHSEAWHKVMKSHWLTLSREEAYMHEGRTGASTINIVFQRELGREATQEEIESIYQEKSVLFNSYP | -1.37
30 | HMRQNPESFLNHKVKKNESLESLTKKYELTENEIIFYNPLIQKIGLKKRMILKIPIYNNQNLVTKSVD | -0.161
31 | HMLLLHINQMGVTEFSQLELNHVRSWLANLQIKGAARSSITRRVVSVRAFTYWGAKNGWLASDIGRDLVAP | -0.275
32 | HMFQLSNEAKQQVLGELKRYESKQSAVLPALYIGQKDNKGHITPEVIRELSKVMDIPESQINEVFTFYTM | -0.402
33 | HMTGEEVLIMLGEKMKLIRNYNGYSQRQIAEILKIERSTYASYETGRNRPDIFAVQRFAKIFNVSVDYIL | -0.877
34 | HMQEERDISFIKIHLEPGHPWRGRALRELMPLKDLLIVMVVRGEDTIVPNGDTRLEEGDLLVLAAYPFEE | -2.57
35 | HMLKEGQYSPNHFHWHKMEDIINRGGGTLLIRVYNSLPDEEIDRESDVTVHMDGVTRTVPAGTQLRLE | -0.345
36 | HMDAAANTLRILKALSESPMSADRLAELLMEEGSGRNPRTIRRYIRALREAGFGVEHREGRYVL | -0.483
37 | HMKTATAKIKATPFGWLRVRETPSLNGAEIARVNSGESYKILERGEGWIKIKVSDTVEGWVSEAYVELS | -0.236
38 | HMNINTEMEKVSYSLGVNIASSLKQQGWELDAKSLSDAFVDVFNGNKLLIDEKEASSILQNYQQKIANK | -1.1
39 | HMKVFREERLQLILEKLIHEKKVVVSDLVKYFNVSPSLIRMDLAELEKRDLILRTHGGAILPD | -0.0668
40 | HMSTVIENVFKNFEVYEIKKGDTFYNIEKRFGVNRQELLVLNPELKEGLKLGMVLKIKEIIP | 0.192
41 | HMGVMNEYEELRDRYLTGQIWKIGDLVEAKGIEGKIIQRGTNYITFNDSQGKVHKAWLHEIKV | ≥ 0.43
42 | HMNKKEIISVLEKIIPPSQIKNINIFGSELVIDLNIDNPSLHAKKKLEKSIMSSFDENLKIIVNFSVE | 0.22
43 | HMGVSEIGSPAWMESKLVTLASYEGSLDGLRTLWGGVAQHRARIPVESWDRLFAAKEEGKARLVKLGRT | 0.0299
44 | HMEWLENIKKLKKEKGLTNESLSEKSGISVGTLNKLLSGATTDPKLSTLRPLADALEVSLDELLAI | -0.187
45 | HMTSAPHHIAAVLRDAIYRGVLEEGGPLHQARIAQSLGVSPIPLREALRLLETEGLVEFRGYRGAFVT | -0.8
46 | HMKEQYTELDWDKVQVNDKVMIKDLNQQVTILSLPDKNNALYIQMGMIKTKVKKEKLAVYNPQLA | -0.103
47 | HMGELDFYEEMRDDYLTGKIWNVGEIVEAKGMIGEIVRKGTNYISFVTDDNKVHKAWLHEIKL | -1.37
48 | HMNTISYTELIKQIDEGNVEKVEMTVGSTSVKVKLQGQEEEKKAIVPNTQAFVELIQEKTLEGNQIDLKQN | 0.0768
49 | HMLTRQRKQLLEYLSKHTDEQMTARQIADALTAESISISAVYRNLSALEEEGILKRSIRENTREVYYQYIA | -0.231
50 | HMKPKDILLPNFTNLTLDEAKAKAEEVKLNLNVSEEKYDVQIEEGKIISQDPKYQPNYTVKEGSTVNVVVS | 0.0508

Row | Sequence | soluble fraction (log2)
51 | HMPAPAPDIPYHSRVSVRRADGFYEGTWTNTAPILDYTGRWMVNVSLGGKRVFVPVEEVVVH | -0.384
52 | HMEFTVFMNSAGGSKLQVVKTVKELTGLGLKEAKAIVDGSPGPVKEGLSKADAEAMLAKLQEAGADVEL | -0.117
53 | HMELEIPGELIEAVRRLRDERQRMRLAGELAARQIQMHPERYTEASIDPVQTWDELRARILALA | -0.582
54 | HMSSKAVLEKFEALFIDQMLQSMRKATVRSELFDSEGIKLYESLFDKEISEELAKSGGLGLTKDLEQQL | -1.35
55 | HMLEKVLDNHIHKLRLQHKISQQELADAIGVSRKTISTVETGRFTPSVVIALKIAAHFSVSVEQVFTL | -0.187
56 | HMIPRGFSRYYILELLQKKPHTGKEIIDNAIKESGGRWNPSPGLIYPLLGRLLDENLIEETNDGKYK | -0.631
57 | HMITVPKVINMSETQARQTLDALGLNVTLSATQVMNDKIPYGYVAAQSYSAGKEVPAGTTIELTMSIGL | 0.0236
58 | HMVSAEQNTLEFIKENVKEDVIEDDIEFYKSLLEDWSVEVDNSSKLLDPGNNNSLLAVIAYSIENEL | -0.414
59 | HMPQVALAIDEMKRELASPDIVKTLLATTFKGLSEVNMRQAMLDGMIQGHTIADFFKKDVYAIPFGSGYSL | -0.0951
60 | HMHHSGLRQSQFDEISRQIRSLLEMESLSLQELKTRMEDVPEEQLTKVVSYLLSEEIIRQENGRLQ | -1.35
61 | HMLKHSKQRDAIEQFLATRYDHPTAETVYMNLREEYPKLSLATVYRNLSLLAELGNIQKIPTGNGPDRFDG | 0.22
62 | HMGVGERIKARRKEIGLSAEQVAKELGVSPATVYRYESNDIMNMRIDKLEPIAKALHTTPAYLMGWE | 0.155
63 | HMAIMISINAKGEVAWNDQIISLDDLAQRFNAAGQQAQKPTVQLRADKESRYDMVAQVMSRASEAGLSDIA | -0.966
64 | HMLKIVRSREEVESRLYTIYGNVKGRRLYNFYLSLIIDGLDIVKARTSKNVYYTNIRNLKNAGIDFSQKIN | -0.0641
65 | HMQTEFVISSGEQPKRLDVFLLQREPYLSRAALQRMIAAGWVRVNNHLAKSSQRIKAGDVIVFD | 0.0697
66 | HMAVSGRGSIIGGVATVLDDFADSGKVWLEGEAWQARSSVPLKQDQEVVVRAMDGLVLVVEPVA | -0.869
67 | HMNSTNYQVIITANGGLNIRAGASTAYARIGGYAKGTVVTILAESNGFGKTDKGWISLNYTSKDLD | 0.148
68 | HMMEERVIEFANVLRRNGVRVSLAENMDAFRALKSLGISDPLLFRHALRATLIKRGSDIQPFEELFDFFFL | -1.08
69 | HMFTEEEMTKLRHELILAGIRLSRELGLQRMSVEKITSAVGIAKGSFYIFFDSKEDFILEIADHANRE | -0.828
70 | HMEINEDEIYEKIMIEIEQDNKVKSTWAKALSQSDGNKDKAESLYISMRFEELKYHQSYQKEELNLKDNQQ | -0.989
71 | HMLQADALADPVGWALRTLGFDLEAGTPERSAIQRSFRQSLIEAHPDHGGADDEAAQRIADITEARRILLA | -0.858
72 | HMIKKLDIEPIIKSVVDDFNNIYKLKRGITISYLNDGKNKYFINGIENRIEQIIANLLDNSISFSEDNKDV | 0.122
73 | HMPALPGNELLRNLMLEHGLKQVDLAEIGSQGVVSEILSGKRRINRRHADLLARRFSLPAELFSR | -0.0865
74 | HMAAVPYQVKITTEDLRIRTGPGTNHDFTGQYTGKGVFTIVEESEGSGAPIWGRLKSGAGWIGIDPSWSVR | -0.524
75 | HMQEKQIIDGREFYIHQVERGITLYSIAKQYNVKVADIQAENPFLEAGLQPGQTLKIPLDKVETVQEIK | -0.17
